Among the data in PMC4829482 are Km, kcat and kcat/Km values, retold here.

The subject of data set [1] is CC(C)=CCC/C(C)=C/CC/C(C)=C/CO[P@@](=O)(O)OP(=O)(O)O. Put plainly: steady-state radiochemical kinetics. In kind it is biochemical, Streptomyces citricolor. Particulars: Mg2+ active site.
Substrate in the data set “purified protein”: CC(C)=CCC/C(C)=C/CC/C(C)=C/CO[P@@](=O)(O)OP(=O)(O)O
Put plainly: purified protein. Particulars: Mg2+ active site.

Take “germacradien-4-ol synthase (GdolS) (Streptomyces citricolor; D81E)”: in data set [1], the Km (usually the concentration of substrate that gives half-maximal velocity) is 0.82 ± 0.11 µM; the kcat – broadly, the number of substrate molecules converted per active site and unit of time at saturation – was 0.01 ± 0.0006 s⁻¹.

As for “germacradien-4-ol synthase (GdolS) (Streptomyces citricolor; D84E)”, in data set [1], the Km is 0.92 ± 0.09 µM and the catalytic constant (kcat) is 0.009 ± 0.0003 s⁻¹.

Take “germacradien-4-ol synthase (GdolS) (Streptomyces citricolor; E307Q)”: in data set [1], the Km came to 2.24 ± 0.16 µM and the kcat came out at 0.013 ± 0.0004 s⁻¹.

For the molecule “germacradien-4-ol synthase (GdolS) (Streptomyces citricolor; Y303F)”, in data set [1], the Km came to 0.66 ± 0.12 µM and the kcat was 0.014 ± 0.006 s⁻¹.

B1: germacradien-4-ol synthase (GdolS) (Streptomyces citricolor) (protein)
chain: MSDDTSLELPFTHRRNPHQTEAADRHLEWLQRHRELAAVVSGSTYTGWDITELASLVYPESSAEDLALAADLMGFYFLFDDQFDSPLGRRPEQVALICERLSAIAHGTLTAVTSPSERAFADLWRRITLGMTDRWRARAACNWEYYFACHPAEAAGRTIGQPPDREGYLTLRRGTAAMESIFDMIERLGHFEVPQHVMHHPLFRQLRQLAADIPSFTNDVRSFAQESERGDVANLVMIVRRDRCCSTEEACAVVWDEAQRMADRFCDLRDQLPDACRSMSLDPAQRLAAERYADGMALWLAGYLHWESHTRRYHHG
In the case of B1, in “purified protein”, the Km was found to be 1.07 ± 0.13 µM; the kcat turned out to be 0.079 s⁻¹; the kcat/Km (in general, the turnover number divided by the Michaelis constant) amounted to 73800 M⁻¹ s⁻¹.
